Results taken from US20160017037A1 (GlaxoSmithKline, published 2016).

Target: T1, recombinant soluble human FcγRIIIa F158 (human, UniProt P08637 17-208)
T1 construct: also called FcγRIIIa phenylalanine F158; CD16
Assay: SPR ProteOn XPR36, His-tagged receptor captured on anti-poly-histidine IgG, equilibrium model
Protocol: A goat anti-poly-histidine IgG was immobilised on a GLM biosensor chip by primary amine coupling. This surface was used as a capture surface for the poly-histidine tagged human Fc gamma receptors. […] The goat anti-poly-histidine IgG surface was regenerated with 100 mM phosphoric acid between interactions. The run was carried out on the ProteOn XPR36 Protein Array Interaction System at 25° C. and using HBS-EP as running buffer. Data was analysed for each receptor separately, setting a global R-max and using the Equilibrium Model inherent to the ProteOn's analysis software. Control molecules were run at the beginning and the end of the set of samples to be tested to ensure comparability of results. Data was compared from two experiments and hybrid control antibodies used as controls between experiments.

T1 sequence (P08637 17-208 limits assumed): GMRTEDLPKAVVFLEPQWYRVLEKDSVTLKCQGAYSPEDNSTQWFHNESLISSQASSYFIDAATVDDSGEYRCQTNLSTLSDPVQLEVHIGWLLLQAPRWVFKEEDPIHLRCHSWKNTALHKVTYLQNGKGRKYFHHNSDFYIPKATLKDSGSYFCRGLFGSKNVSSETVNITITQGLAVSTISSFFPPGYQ

fold improvement in affinity against H5L7: ~10 fold
B1: H5L7BW (antibody, human IgG1, kappa)
heavy: not shown
light: DIQMTQSPSSLSASVGDRVTITCKSSQSLLNPSNQKNYLAWYQQKPGKAPKLLVYFASTRDSGVPSRFSGSGSGTDFTLTISSLQPEDFATYYCLQHFGTPPTFGQGTKLEIKRTVAAPSVFIFPPSDEQLKSGTASVVCLLNNFYPREAKVQWKVDNALQSGNSQESVTEQDSKDSTYSLSSTLTLSKADYEKHKVYACEVTHQGLSSPVTKSFNRGEC
modifications: afucosylated: no fucose on the core carbohydrate structure attached to Asn297
notes: Same plasmids as H5L7, expressed in the BioWa POTELLIGENT (FUT8 knock-out CHO) cell line; also called afucosylated antibody H5L7BW; afucosylated H5L7
